In the supplement of paper PMC10567573 one finds protein stability index data, which are given here for 94 variants.

The labels stand for the following.
B1: ANKRD17 (parent)
chain: EVLRRLTSSVSCALDEAAAALTRM
B2: RHOBTB1 (parent)
chain: TFGDHHKDRRFAYGRSDVVVLCFS
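Note: lentivirally expressed fusions sorted by FACS into six bins by GFP to DsRed ratio, PSI derived from sequencing read proportions per bin multiplied by bin number.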

In one series the parent is B1. Nature of the series: protein stability index of a GFP-peptide fusion (GPS, HEK-293T) (PSI 1-6); higher = more stable. Conditions: c terminus: a fixed tail appended.
Regarding EVLPRLTSSVSCALDEAAAALTRM, the protein stability index came to 2.15.

Turning to EVLQRLTSSVSCALDEAAAALTRM, the protein stability index was 1.57.

Regarding EVLGRLTSSVSCALDEAAAALTRM, the protein stability index turned out to be 2.19.

Turning to EVLIRLTSSVSCALDEAAAALTRM, the protein stability index turned out to be 1.04.

With EVLYRLTSSVSCALDEAAAALTRM, the protein stability index was found to be 2.34.

Take EVLSRLTSSVSCALDEAAAALTRM: the protein stability index is 1.05.

Turning to EVLTRLTSSVSCALDEAAAALTRM, the protein stability index turned out to be 2.1.

As for EVLCRLTSSVSCALDEAAAALTRM, the protein stability index came to 1.74.

Consider EVLFRLTSSVSCALDEAAAALTRM, for which the protein stability index is 1.03.

As to EVLWRLTSSVSCALDEAAAALTRM, the protein stability index is 1.07.

In the case of EVLERLTSSVSCALDEAAAALTRM, the protein stability index was 1.42.

With EVLRRETSSVSCALDEAAAALTRM, the protein stability index worked out at 3.9.

Take EVLRRCTSSVSCALDEAAAALTRM: the protein stability index is 2.38.

Regarding EVLRRFTSSVSCALDEAAAALTRM, the protein stability index is 1.9.

As to EVLRRATSSVSCALDEAAAALTRM, the protein stability index came out at 2.11.

For EVLRRITSSVSCALDEAAAALTRM, the protein stability index amounted to 1.67.

Turning to EVLRRKTSSVSCALDEAAAALTRM, the protein stability index stood at 2.17.

Regarding EVLRRGTSSVSCALDEAAAALTRM, the protein stability index amounted to 1.42.

In the case of EVLRRMTSSVSCALDEAAAALTRM, the protein stability index was determined as 1.76.

As for EVLRRHTSSVSCALDEAAAALTRM, the protein stability index was 1.66.

Take IVLRRLTSSVSCALDEAAAALTRM: the protein stability index was determined as 1.89.

With AVLRRLTSSVSCALDEAAAALTRM, the protein stability index was 2.07.

Turning to CVLRRLTSSVSCALDEAAAALTRM, the protein stability index was determined as 1.94.

On to RVLRRLTSSVSCALDEAAAALTRM, for which the protein stability index amounted to 3.12.

Take TVLRRLTSSVSCALDEAAAALTRM: the protein stability index turned out to be 2.08.

Regarding GVLRRLTSSVSCALDEAAAALTRM, the protein stability index is 2.73.

As for VVLRRLTSSVSCALDEAAAALTRM, the protein stability index worked out at 2.42.

Regarding FVLRRLTSSVSCALDEAAAALTRM, the protein stability index was determined as 1.73.

For the variant KVLRRLTSSVSCALDEAAAALTRM, the protein stability index came out at 2.28.

With MVLRRLTSSVSCALDEAAAALTRM, the protein stability index is 1.38.

With QVLRRLTSSVSCALDEAAAALTRM, the protein stability index stood at 3.07.

Regarding HVLRRLTSSVSCALDEAAAALTRM, the protein stability index was determined as 2.67.

Regarding PVLRRLTSSVSCALDEAAAALTRM, the protein stability index turned out to be 2.48.

With SVLRRLTSSVSCALDEAAAALTRM, the protein stability index was determined as 2.2.

Turning to YVLRRLTSSVSCALDEAAAALTRM, the protein stability index stood at 2.22.

In the case of LVLRRLTSSVSCALDEAAAALTRM, the protein stability index stood at 1.8.

For the variant DVLRRLTSSVSCALDEAAAALTRM, the protein stability index is 1.97.

As for EVLRTLTSSVSCALDEAAAALTRM, the protein stability index is 1.

EVLRNLTSSVSCALDEAAAALTRM: the protein stability index was found to be 2.35.

In the case of EVLRGLTSSVSCALDEAAAALTRM, the protein stability index was determined as 2.1.

Take EVLRKLTSSVSCALDEAAAALTRM: the protein stability index came to 4.55.

With EVLRWLTSSVSCALDEAAAALTRM, the protein stability index was determined as 1.02.

As to EVLRSLTSSVSCALDEAAAALTRM, the protein stability index was found to be 2.18.

In the case of EVLRMLTSSVSCALDEAAAALTRM, the protein stability index is 2.05.

With EVLRHLTSSVSCALDEAAAALTRM, the protein stability index is 2.23.

For the variant EVLRPLTSSVSCALDEAAAALTRM, the protein stability index stood at 2.02.

Take EVLRLLTSSVSCALDEAAAALTRM: the protein stability index came to 1.59.

With EVLRFLTSSVSCALDEAAAALTRM, the protein stability index was determined as 1.68.

Regarding EVLRDLTSSVSCALDEAAAALTRM, the protein stability index is 3.56.

For the variant EVDRRLTSSVSCALDEAAAALTRM, the protein stability index was determined as 3.35.

Take EVARRLTSSVSCALDEAAAALTRM: the protein stability index worked out at 1.83.

As for EVGRRLTSSVSCALDEAAAALTRM, the protein stability index came out at 3.68.

Consider EVMRRLTSSVSCALDEAAAALTRM, for which the protein stability index worked out at 1.41.

EVTRRLTSSVSCALDEAAAALTRM: the protein stability index turned out to be 1.55.

With EVSRRLTSSVSCALDEAAAALTRM, the protein stability index worked out at 2.98.

Turning to EVWRRLTSSVSCALDEAAAALTRM, the protein stability index turned out to be 1.4.

Regarding EVYRRLTSSVSCALDEAAAALTRM, the protein stability index was found to be 2.44.

For EVPRRLTSSVSCALDEAAAALTRM, the protein stability index stood at 3.4.

For EVIRRLTSSVSCALDEAAAALTRM, the protein stability index amounted to 1.23.

On to EVRRRLTSSVSCALDEAAAALTRM, for which the protein stability index worked out at 2.17.

Consider EMLRRLTSSVSCALDEAAAALTRM, for which the protein stability index was determined as 2.56.

As for EDLRRLTSSVSCALDEAAAALTRM, the protein stability index came out at 2.77.

Regarding EYLRRLTSSVSCALDEAAAALTRM, the protein stability index amounted to 2.08.

As to EHLRRLTSSVSCALDEAAAALTRM, the protein stability index stood at 3.64.

Consider EILRRLTSSVSCALDEAAAALTRM, for which the protein stability index is 2.4.

In the case of EALRRLTSSVSCALDEAAAALTRM, the protein stability index was 2.96.

For EPLRRLTSSVSCALDEAAAALTRM, the protein stability index was determined as 2.43.

Consider ESLRRLTSSVSCALDEAAAALTRM, for which the protein stability index came to 2.59.

As to EELRRLTSSVSCALDEAAAALTRM, the protein stability index was determined as 2.21.

With ERLRRLTSSVSCALDEAAAALTRM, the protein stability index worked out at 2.6.

Consider EQLRRLTSSVSCALDEAAAALTRM, for which the protein stability index was 2.56.

Take ECLRRLTSSVSCALDEAAAALTRM: the protein stability index stood at 2.34.

On to ELLRRLTSSVSCALDEAAAALTRM, for which the protein stability index stood at 2.35.

Consider EWLRRLTSSVSCALDEAAAALTRM, for which the protein stability index was 1.69.

Regarding EKLRRLTSSVSCALDEAAAALTRM, the protein stability index stood at 2.33.

For ETLRRLTSSVSCALDEAAAALTRM, the protein stability index came to 2.79.

Variants of B2 are the subject of a further series. The series is described as above. The settings on record: c terminus: a fixed tail appended.
Regarding TFGDHHKDRRFAYGRSDVVVLCWS, the protein stability index was determined as 1.81.

On to TFGDHHKDRRFAYGRSDVVVLCTS, for which the protein stability index was found to be 1.68.

For TFGDHHKDRRFAYGRSDVVVLCPS, the protein stability index came to 2.16.

For the variant TFGDHHKDRRFAYGRSDVVVLCYS, the protein stability index is 2.22.

In the case of TFGDHHKDRRFAYGRSDVVVLCSS, the protein stability index came to 1.66.

Turning to TFGDHHKDRRFAYGRSDVVVLCRS, the protein stability index came to 2.38.

TFGDHHKDRRFAYGRSDVVVLCFC: the protein stability index was 3.85.

Take TFGDHHKDRRFAYGRSDVVVLCFE: the protein stability index was determined as 2.05.

With TFGDHHKDRRFAYGRSDVVVLCFT, the protein stability index stood at 2.16.

In the case of TFGDHHKDRRFAYGRSDVVVLCFP, the protein stability index turned out to be 1.48.

As to TFGDHHKDRRFAYGRSDVVVLCFH, the protein stability index worked out at 2.98.

With TFGDHHKDRRFAYGRSDVVVLCFF, the protein stability index was found to be 2.84.

For TFGDHHKDRRFAYGRSDVVVLCFV, the protein stability index worked out at 2.3.

As for TFGDHHKDRRFAYGRSDVVVLCFR, the protein stability index amounted to 2.95.

TFGDHHKDRRFAYGRSDVVVLCFN: the protein stability index was 1.65.

On to TFGDHHKDRRFAYGRSDVVVLCFD, for which the protein stability index is 1.66.

As for TFGDHHKDRRFAYGRSDVVVLCFG, the protein stability index is 2.54.

For TFGDHHKDRRFAYGRSDVVVLCFY, the protein stability index came to 4.57.
